From US20220409711A1 (published 2022)

Molecular target: T1, Hormad1 peptide on HLA-A*02:01 (human)
T1 peptide: YLDDLCVKI
Experiment: multimer staining

binding result: recognises
B1: Hormad1 CTL A12 TCR (TRAV4*01 F, TRBV13*01 F) (TCR, V domains shown)
Valpha: LAKTTQPISMDSYEGQEVNITCSHNNIATNDYITWYQQFPSQGPRFIIQGYKTKVTNEVASLFIPADRKSSTLSLPRVSLSDTAVYYCLVGARGTALIFGKGTTLSVSS
Vbeta: AAGVIQSPRHLIKEKRETATLKCYPIPRHDTVYWYQQGPGQDPQFLISFYEKMQSDKGSIPDRFSAQQFSDYHSELNMSSLELGDSALYFCASSPTGQGSYEQYFGPGTRLTVT
